# Data published in patent US20190010237A1 (AbbVie / Abbott, published 2019).
# T1: PRLR (prolactin receptor, as named in the kinetics and crystallography paragraph) (UniProt P16471 25-234, limits assumed)
# T1 construct: The paragraph says only 'PRLR'
# T1 sequence (looked up): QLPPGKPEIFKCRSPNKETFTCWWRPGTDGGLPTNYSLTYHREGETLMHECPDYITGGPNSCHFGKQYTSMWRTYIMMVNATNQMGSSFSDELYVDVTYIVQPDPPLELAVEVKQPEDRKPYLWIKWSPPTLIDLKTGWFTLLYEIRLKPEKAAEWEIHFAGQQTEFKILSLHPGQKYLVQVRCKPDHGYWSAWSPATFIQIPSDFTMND
# T2: Human PRLR expressed on HEK-293 cells (human, UniProt P16471 25-622)
# T2 construct: also called PRLR-expressing HEK-293 cells; HEK293/Human PRLR
# T2 sequence: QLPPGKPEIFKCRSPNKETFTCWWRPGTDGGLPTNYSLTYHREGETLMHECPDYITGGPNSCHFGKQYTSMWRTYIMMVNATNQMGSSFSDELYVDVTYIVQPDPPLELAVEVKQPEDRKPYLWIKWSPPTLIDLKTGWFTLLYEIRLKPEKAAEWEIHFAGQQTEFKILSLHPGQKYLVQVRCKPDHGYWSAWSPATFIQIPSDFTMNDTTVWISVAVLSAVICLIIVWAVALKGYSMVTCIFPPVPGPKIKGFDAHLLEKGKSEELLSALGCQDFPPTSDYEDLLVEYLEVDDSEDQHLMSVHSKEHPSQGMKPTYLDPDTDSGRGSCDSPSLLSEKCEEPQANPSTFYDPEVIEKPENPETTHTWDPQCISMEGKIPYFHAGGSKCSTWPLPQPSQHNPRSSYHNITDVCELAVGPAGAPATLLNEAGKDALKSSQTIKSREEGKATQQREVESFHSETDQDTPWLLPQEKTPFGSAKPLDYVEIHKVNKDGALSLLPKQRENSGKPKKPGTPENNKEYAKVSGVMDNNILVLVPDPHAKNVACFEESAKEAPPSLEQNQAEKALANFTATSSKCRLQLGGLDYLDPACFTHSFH
# How the values were obtained:
# [1] = target: T1, PRLR (prolactin receptor, as named in …); experiment: kinetic measurement, method not named
# [2] = target: T2, Human PRLR expressed on HEK-293 cells; experiment: FACS titration on PRLR-expressing HEK-293 cells (293hPRLR), MFI against Ab (nM)
Kd [1] [nM],koff [1] [s⁻¹],EC50 [2] [nM],Binder
1.3,0.0011,,"anti-PRLR antibody LFA-102 (Novartis) (antibody, V domains shown) VH: EVQLVESGGGLVQPGGSLRLSCAVSGFTFSSYGMSWVRQAPGKRLEWVATVSSGGTYTYYPDSVKGRFTISRDNSKNTLYLQMNSLRAEDTAMYYCARHRGNYYATYYYAMDYWGQGTLVTVSS VL: DIVLTQSPDSLAVSLGERATINCKASKSVSTSGYTYMHWYQQKPGQPPKLLIYLASNRESGVPDRFSGSGSGTDFTLTISPVQAEDVATYYCQHSGELPPSFGQGTKLEIKR"
,,0.5,"h16e anti-PRLR antibody (antibody, human IgG1, kappa) heavy: not shown light: DIQMTQSPSSLSASVGDRVTITCRASENIYSYLAWYQQKPGKPPKLLVYNAKTLAEGVPSRFSGSGSGTDFTLTISSLQPEDFATYYCQHHYATPFTFGQGTKLEIKRTVAAPSVFIFPPSDEQLKSGTASVVCLLNNFYPREAKVQWKVDNALQSGNSQESVTEQDSKDSTYSLSSTLTLSKADYEKHKVYACEVTHQGLSSPVTKSFNRGEC"
0.46,0.000623,0.29,"h16f humanized anti-PRLR antibody (antibody, human IgG1, kappa, Humanized IgG1; also called antibody h16f; parental h16f) heavy: not shown light: DIQMTQSPSSVSASVGDRVTITCKASQYVGTAVAWYQQKPGKSPKLLIYSASNRYTGVPSRFSDSGSGTDFTLTISSLQPEDFATYFCQQYSSYPWTFGGGTKVEIKRTVAAPSVFIFPPSDEQLKSGTASVVCLLNNFYPREAKVQWKVDNALQSGNSQESVTEQDSKDSTYSLSSTLTLSKADYEKHKVYACEVTHQGLSSPVTKSFNRGEC"
